± gives the standard deviation of the averaged measurements.
Test system: Saccharomyces cerevisiae
Experiment: protein stability index of tFT-peptide fusion (C-terminal peptide) (PSI (0-1 scale)); higher = more stable (slower turnover)
Details: genetic background: wild type; temperature: 30 C
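Note: PSI is a weighted mean of sequencing reads over stability bins, variants kept only with over 10 reads, mCherry proximal and sfGFP distal, peptide attached via GGGS linker.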

In order of falling protein stability index:
1. LYGSIPFGCRIL  0.94 ± 0.018
2. MGPLHVMLQRAR  0.805 ± 0.16
3. LSPVSPRPLLPV  0.773 ± 0.12
4. LVPLFVLPYGHP  0.768 ± 0.073
5. LSSSVAPLIPPP  0.767 ± 0.031
6. MFGTVVFGAHRR  0.749 ± 0.015
7. LTHLLTSHTNII  0.746 ± 0.081
8. LVWLGCGLGGLC  0.745 ± 0.054
9. LTFSPPERLSFH  0.737 ± 0.12
10. LWCDTRIDMSRH  0.737 ± 0.038
11. LVVSHDSSLMMR  0.7363 ± 0.0045
12. LSLPPHASPTPS  0.735 ± 0.055
13. LVQCSAISARRF  0.735 ± 0.026
14. LYSFSIPPSLGS  0.735 ± 0.085
15. MENEDYIVRKKK  0.73 ± 0.054
16. LSYQTGTTRTRK  0.728 ± 0.056
17. LVLGFDVTPGTF  0.728 ± 0.017
18. LVSPPSPPLPPP  0.728 ± 0.12
19. LWPYSRYSFSPP  0.726 ± 0.02
20. LSSPPSPRAFLP  0.723 ± 0.065
21. MANYIVEGGEPY  0.723 ± 0.025
22. LSLTRIFQLTRW  0.721 ± 0.023
23. LSHSSPLFSPLV  0.72 ± 0.0077
24. LSPASPGPFLSC  0.72 ± 0.022
25. MCVGGGCGRGGA  0.719 ± 0.14
26. LSHPPPPPSSAT  0.716 ± 0.027
27. LYWSGFCPVFWG  0.7164 ± 0.0027
28. LSHIPDRQRLKP  0.715 ± 0.062
29. LSTPSLFTPFRA  0.715 ± 0.024
30. LYPLTPWYVVPP  0.715 ± 0.11
31. LTSVQFNKWTIE  0.714 ± 0.047
32. LVLHWPSPREAL  0.713 ± 0.071
33. LTHLADVRSVLS  0.708 ± 0.043
34. LVCTLLGAASAP  0.708 ± 0.033
35. LSISPSPPPPLW  0.706 ± 0.052
36. LYSPPPPPIPSP  0.7046 ± 0.0067
37. LTRKTPQKRAPQ  0.704 ± 0.013
38. LSPYFWITEDAS  0.7028 ± 0.0051
39. LTPNSLCSFLSR  0.702 ± 0.013
40. MGFARDVYGSVC  0.702 ± 0.022
41. LSRPCPFYPPPR  0.701 ± 0.037
42. LSPAPPHRYSPY  0.7 ± 0.043
43. LWGPGAVWGRGR  0.699 ± 0.049
44. MCVGSLMHKLRW  0.6988 ± 0.0043
45. LSHAQIDPEFTE  0.697 ± 0.042
46. LWGPGGVWGRGR  0.697 ± 0.05
47. LWSICWNRVFPF  0.6973 ± 0.0017
48. LWCCVFGLPSRG  0.696 ± 0.072
49. MIKDVYIDNDNV  0.694 ± 0.02
50. LSPCVGGLFGVV  0.693 ± 0.017
51. LSPPAPPLLFSP  0.691 ± 0.035
52. MDTYIQKKKYIK  0.69 ± 0.0099
53. LTGGNPLTQDGD  0.689 ± 0.019
54. LVRPRFSPPPTP  0.6882 ± 0.0057
55. LSIGDLTIEKKL  0.686 ± 0.022
56. LVRVLHRSHASA  0.685 ± 0.031
57. MGVCLGPPTVWR  0.684 ± 0.043
58. LVLTPPLLSLYP  0.683 ± 0.0083
59. MGGVGGLCGMWA  0.683 ± 0.036
60. LSGRQKLNMSIR  0.682 ± 0.029
61. LTTRTQTDDRKR  0.682 ± 0.0077
62. LTRLETSNITAI  0.679 ± 0.041
63. LWKVVAPRDESP  0.67 ± 0.023
64. LVVVRTGPPRWY  0.669 ± 0.0073
65. MFVTQTGNRCKA  0.668 ± 0.018
66. MGGTGRGGRREI  0.667 ± 0.04
67. LSVMLEGLFGLL  0.662 ± 0.018
68. MDDIAAYTGSCT  0.661 ± 0.032
69. LVGGGVGVGSLV  0.66 ± 0.011
70. LVGRAITTLPPV  0.66 ± 0.037
71. LSPPPHTSVPRL  0.659 ± 0.12
72. LSSFPLPFPPPL  0.659 ± 0.013
73. LSVWPHSVPSFV  0.659 ± 0.036
74. LTVRVTSQPFDL  0.658 ± 0.015
75. LSTPPLPRPYPP  0.654 ± 0.038
76. LTNGQRSLCLCS  0.6537 ± 0.0048
77. LTPSLPLPPSET  0.654 ± 0.047
78. LSSFHCIVTVKD  0.652 ± 0.028
79. LVRGFVDKYVIS  0.652 ± 0.01
80. LYGLFRIADVRR  0.652 ± 0.15
81. LSLGGSPSKRRP  0.648 ± 0.029
82. LSPFCIRSLRPD  0.647 ± 0.069
83. LSPPYCPGALTL  0.646 ± 0.0081
84. LTTMSPGLLRRP  0.639 ± 0.065
85. LWFCGLWPRVSG  0.6384 ± 0.00068
86. LVFAAGCVGGVR  0.633 ± 0.021
87. LVGGGGGVGSLV  0.628 ± 0.042
88. LWVGSGGARCVV  0.624 ± 0.03
89. LWCFVVGEVNGV  0.6209 ± 0.0034
90. LVRFTDPIPQQA  0.615 ± 0.026
91. LSKSPRPARCSA  0.6091 ± 0.0024
92. LVGSRGCGKIVW  0.6 ± 0.026
93. LSSWPFLPLVRI  0.593 ± 0.02
94. LWIVLFRKCELP  0.592 ± 0.018
95. LSSFFLLPCLSS  0.576 ± 0.021
96. LVVTTLQSVVLG  0.559 ± 0.085
97. LSSVFLGICIMS  0.543 ± 0.11
98. LVRLRRSLRLFL  0.539 ± 0.037
99. LVIWSFYSEGIV  0.52 ± 0.017
100. LVLFFPMLRIRI  0.515 ± 0.041
101. LWPLPSASVILL  0.515 ± 0.12

From the supplement of paper PMC10724198
